Source: publication PMC4192059 (Molecular microbiology, 2014)

B1: PPE41 (M. tuberculosis), chain of the crystallized complex (natural protein)
chain: MHFEAYPPEVNSANIYAGPGPDSMLAAARAWRSLDVEMTAVQRSFNRTLLSLMDAWAGPVVMQLMEAAKPFVRWLTDLCVQLSEVERQIHEIVRAYEWAHHDMVPLAQIYNNRAERQILIDNNALGQFTAQIADLDQEYDDFWDEDGEVMRDYRLRVSDALSKLTPWKAPPPIAHSTVLVAPVSPSTASSRTDT
B2: His6-PE25–PPE41 heterodimer (M. tuberculosis), wild type (complex)
chain 1: MSFVITNPEALTVAATEVRRIRDRAIQSDAQVAPMTTAVRPPAADLVSEKAATFLVEYARKYRQTIAAAAVVLEEFAHALTTGADKYATAEADNIKTFS
chain 2: MHFEAYPPEVNSANIYAGPGPDSMLAAARAWRSLDVEMTAVQRSFNRTLLSLMDAWAGPVVMQLMEAAKPFVRWLTDLCVQLSEVERQIHEIVRAYEWAHHDMVPLAQIYNNRAERQILIDNNALGQFTAQIADLDQEYDDFWDEDGEVMRDYRLRVSDALSKLTPWKAPPPIAHSTVLVAPVSPSTASSRTDT

Legend:
[1] = molecular target: T1, EspG5 (M. tuberculosis), crystallization construct (M. tuberculosis H37Rv, UniProt O53943 1-300); experiment: crystal structure
T1 sequence: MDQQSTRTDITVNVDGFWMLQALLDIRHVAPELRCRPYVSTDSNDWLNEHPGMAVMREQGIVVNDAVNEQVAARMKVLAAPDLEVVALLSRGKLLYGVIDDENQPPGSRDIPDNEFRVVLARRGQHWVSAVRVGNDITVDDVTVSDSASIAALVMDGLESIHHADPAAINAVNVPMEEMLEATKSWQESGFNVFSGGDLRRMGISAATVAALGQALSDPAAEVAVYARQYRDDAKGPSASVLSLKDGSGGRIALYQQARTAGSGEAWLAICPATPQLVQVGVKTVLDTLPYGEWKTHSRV

[2] = molecular target: T2, EspG5 (M. tuberculosis), from His6-SUMO3-EspG5, tag cleaved (M. tuberculosis, UniProt O53943 1-300); experiment: ITC
T2 sequence: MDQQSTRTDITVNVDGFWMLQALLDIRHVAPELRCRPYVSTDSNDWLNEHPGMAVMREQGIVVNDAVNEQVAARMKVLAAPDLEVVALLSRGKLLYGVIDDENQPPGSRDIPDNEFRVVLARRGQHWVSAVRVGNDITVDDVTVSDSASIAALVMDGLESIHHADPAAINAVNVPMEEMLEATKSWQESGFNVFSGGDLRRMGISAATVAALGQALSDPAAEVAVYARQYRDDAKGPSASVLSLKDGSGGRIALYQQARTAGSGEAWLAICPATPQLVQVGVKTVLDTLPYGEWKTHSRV

Row | Binder | binding result [1] | Kd [2]
1 | B1 | binds | –
2 | B2 | – | 0.0481 µM
